± gives the uncertainty stated by the source.
Experiment: protein stability index of a GFP-peptide fusion (yeast GPS) (PSI 1-4); higher = more stable; sorted into four equal gates, so the index is relative within each strain
Procedure, shortened: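 Each library plasmid carries Cherry plus GFP with a tiled 17-residue yeast protein peptide fused downstream, and the pooled library was carried in yeast. Mid-log cultures in leucine-free medium were sorted into four equal gates by GFP/Cherry ratio. Reads from Illumina sequencing of PCR-amplified plasmids from each gate were assigned to strains by barcodes. Per peptide, the protein stability index was computed as the summed products of gate read frequency and gate number.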

| Sequence | protein stability index (doa10∆) | protein stability index (pdr5∆) | protein stability index (san1∆) | protein stability index (ubr1∆) |
| --- | --- | --- | --- | --- |
| VPHYNRLDSYKVIEQPI [RPL25] | 1.8 ± 0.095 | 2.21 ± 0.11 | 2.02 ± 0.11 | 2.21 ± 0.11 |
| VPMKEENLEESFLSKHA [SSN2] | 3.43 ± 0.094 | 3.69 ± 0.14 | 2.98 ± 0.2 | 3.35 ± 0.25 |
| VPNSIGNIFSNIGTPSF [SNF5] | 2.8 ± 0.11 | 2.6 ± 0.1 | 1.33 ± 0.15 | 2.79 ± 0.061 |
| VPPMKLAYSKIVNGQTF [YMR129W/POM152] | 1.37 ± 0.068 | 1.48 ± 0.072 | 1.09 ± 0.12 | 1.65 ± 0.053 |
| VPPPPVRPSISFNESQR [RPO21] | 2.47 ± 0.037 | 2.78 ± 0.036 | 2.62 ± 0.039 | 2.45 ± 0.034 |
| VPQTEEARAEAINLMGV [RPO31] | 3.15 ± 0.11 | 2.97 ± 0.1 | 3 ± 0.085 | 3.12 ± 0.052 |
| VPRAALEERFDPKSPTK [YMR129W/POM152] | 3.15 ± 0.062 | 3.09 ± 0.064 | 3.01 ± 0.043 | 3.1 ± 0.047 |
| VPSTTNVNMTVNTMGTG [MED6] | 3.23 ± 0.3 | 3.37 ± 0.11 | 2.91 ± 0.17 | 2.61 ± 0.13 |
| VPVANQFINLAGYKKLG [QCR7] | 1.97 ± 0.14 | 2.5 ± 0.13 | 1.94 ± 0.17 | 2.48 ± 0.11 |
| VPVRKFKGNNGVVVLRD [RPN2] |  | 2.88 ± 0.18 |  |  |
| VQESGNIDYQKGLLIWR [GRR1] | 3.35 ± 0.091 | 3.13 ± 0.1 | 3.37 ± 0.1 | 2.75 ± 0.079 |
| VQGLLQNAAANAEAKGL [RPL17A] | 2.3 ± 0.094 | 2.76 ± 0.1 | 2.06 ± 0.1 | 2.4 ± 0.12 |
| VQVRSVMDPITSKRKAE [DIS3] | 2 ± 0.13 | 2.41 ± 0.13 | 2.92 ± 0.079 | 2.79 ± 0.12 |
| VRELFEMARTKKACIIF [RPT1] | 1.12 ± 0.093 | 1.29 ± 0.11 | 1.08 ± 0.21 | 1.66 ± 0.14 |
| VRELGILCIFEGEKCHP [SEC65] | 2.01 ± 0.052 | 2.43 ± 0.064 | 2.67 ± 0.051 | 2.45 ± 0.042 |
| VRILRLITTNSVEEVIL [SNF2] | 2.3 ± 0.093 | 2.12 ± 0.06 | 2.31 ± 0.081 | 1.68 ± 0.033 |
| VRLRSNVIKTGIRIISL [RPN3] | 2.27 ± 0.21 | 2.35 ± 0.14 | 2.22 ± 0.23 | 2.44 ± 0.065 |
| VRTHMRNMIIVPEMIGS [RPS15] | 1.25 ± 0.059 | 1.47 ± 0.06 | 1.39 ± 0.12 | 1.54 ± 0.05 |
| VRTNTLTKAAIVQIDAT [RPS8A] | 2.233 ± 0.022 | 2.54 ± 0.023 | 2.37 ± 0.026 | 2.297 ± 0.019 |
| VSEITKLKFFPSGEALI [RPN14] | 2.55 ± 0.089 | 2.76 ± 0.069 | 2.95 ± 0.064 | 3.18 ± 0.059 |
| VSFYFEDGTIESYNQND [SIN4] | 2.2 ± 0.083 | 2.34 ± 0.1 | 2.41 ± 0.076 | 2.92 ± 0.084 |
| VSKEGLYQLVDIRDSSC [YMR129W/POM152] | 2.83 ± 0.099 | 2.92 ± 0.084 | 2.7 ± 0.06 | 2.84 ± 0.05 |
| VSKKWAAAAVCEKWAAS [RPL14A] | 2.42 ± 0.083 | 3.04 ± 0.15 | 2.6 ± 0.094 | 2.17 ± 0.077 |
| VSLGTSIMAVTFKDGVI [PRE3] | 3.55 ± 0.12 | 3.12 ± 0.18 | 3.27 ± 0.075 | 3.6 ± 0.074 |
| VSMYQNSSTSSTSNTPS [YDL088C/ASM4] | 2.59 ± 0.064 | 2.6 ± 0.064 | 2.58 ± 0.074 | 2.69 ± 0.046 |
| VSNNEANTPSIPTNPVD [SWI3] | 3.14 ± 0.074 | 3.2 ± 0.09 | 2.97 ± 0.082 | 3.08 ± 0.065 |
| VSPAFRVQVGDIVTVGQ [RPS11A] | 2.49 ± 0.091 | 2.96 ± 0.093 | 2.55 ± 0.14 | 2.42 ± 0.078 |

| Sequence | protein stability index (doa10∆) | protein stability index (pdr5∆) | protein stability index (san1∆) | protein stability index (ubr1∆) |
| --- | --- | --- | --- | --- |
| VSQQPLSRGYTCPGLSL [ECM29] | 3.02 ± 0.056 | 2.97 ± 0.04 | 3.02 ± 0.051 | 2.93 ± 0.044 |
| VSSSLYERRFGPYFVGP [PUP3] | 2.79 ± 0.13 | 2.88 ± 0.16 | 2.62 ± 0.13 | 2.95 ± 0.095 |
| VSTAKFSGKYLKYLTKK [RPL22A] | 3.17 ± 0.12 | 3.29 ± 0.11 | 3.41 ± 0.2 | 3.26 ± 0.12 |
| VTDKYTAKKTNRSAYDS [YDL088C/ASM4] | 2.81 ± 0.089 | 3.26 ± 0.081 | 2.96 ± 0.14 | 2.79 ± 0.043 |
| VTDNKTPEMNVTNNVEE [TAF14] | 3.28 ± 0.17 | 3.27 ± 0.12 | 3.35 ± 0.13 | 3.2 ± 0.17 |
| VTDSSLLKLLTRLVQLR [GRR1] | 2.4 ± 0.054 | 1.7 ± 0.056 | 2.41 ± 0.074 | 1.84 ± 0.045 |
| VTEMSNNANVLGGEIND [BRR2] | 3.18 ± 0.11 | 3.18 ± 0.12 | 3.51 ± 0.085 | 3.15 ± 0.064 |
| VTFIFGELKRGNESVKP [MED11] | 3.43 ± 0.17 | 3.12 ± 0.077 | 2.97 ± 0.1 | 2.98 ± 0.15 |
| VTKDLKLRREDEIIVYA [REC8] | 2.8 ± 0.069 | 2.73 ± 0.05 | 3.18 ± 0.056 | 2.96 ± 0.044 |
| VTKGGTVENPLRNWEEL [PRP28] | 2.55 ± 0.073 | 2.71 ± 0.1 | 3.33 ± 0.055 | 2.89 ± 0.057 |
| VTMGAKDKLREFIPHST [RPN6] | 3.46 ± 0.11 | 3.1 ± 0.14 | 2.96 ± 0.099 | 3.04 ± 0.11 |
| VTPNDKIPEREEKSNEV [SIR4] |  | 3.16 ± 0.24 | 3.42 ± 0.21 |  |
| VTRIINSSEIQSAIRPA [RPL4A] | 2.32 ± 0.083 | 2.54 ± 0.12 | 2.37 ± 0.07 | 2.26 ± 0.096 |
| VTSKVRNAEFKVSKNST [YMR153W/NUP53] | 3.08 ± 0.15 | 3.49 ± 0.19 | 2.98 ± 0.11 | 3.28 ± 0.29 |
| VTVDADIDDILKKGEQK [ISW2] | 2.85 ± 0.12 | 2.76 ± 0.07 | 2.35 ± 0.084 | 2.72 ± 0.043 |
| VTVEQLRSIYHQFHDIL [NSL1] | 2.41 ± 0.11 | 1.9 ± 0.073 | 1.31 ± 0.16 | 1.81 ± 0.066 |
| VTWRTFTGDFLRRVEER [FAS1] | 2.79 ± 0.12 | 1.78 ± 0.096 | 1.96 ± 0.12 | 1.24 ± 0.15 |
| VVERHLEDGDVVLFNRQ [RPO31] | 3.41 ± 0.079 | 3.32 ± 0.077 | 3.57 ± 0.069 | 3.38 ± 0.083 |
| VVFTRLVQRCWQWGNDR [CSN12] | 1.42 ± 0.092 | 1.4 ± 0.08 | 1.58 ± 0.14 | 1.52 ± 0.058 |
| VVGQLFQIDNDNIRYAT [SMC2] | 2.67 ± 0.067 | 2.67 ± 0.066 | 2.65 ± 0.065 | 2.88 ± 0.078 |
| VVMAMYNPKMIDDRDYV [RET1] | 3.36 ± 0.27 |  |  | 3.45 ± 0.27 |
| VVSTDLESIQKTKEAVA [RPL4A] | 2.95 ± 0.072 | 3.12 ± 0.083 | 2.9 ± 0.08 | 2.82 ± 0.063 |
| VVTMSVKSVNDPSQNRL [RPC37] | 2.27 ± 0.19 | 2.56 ± 0.27 | 2.42 ± 0.17 |  |
| VYAQQSTVQTPITASMA [PGD1] | 1.59 ± 0.056 | 1.95 ± 0.079 | 1.51 ± 0.09 | 1.86 ± 0.042 |
| VYDIMALEDEERDEILT [BRR2] | 3.15 ± 0.16 | 3.28 ± 0.15 | 3.08 ± 0.078 | 3.39 ± 0.096 |
| VYSFDPVGSYEREQCRA [PRE7] | 3.62 ± 0.23 | 3.47 ± 0.23 | 3.27 ± 0.13 | 3.29 ± 0.091 |
| VYVTGGRNLGRIGTIVH [RPS4A] | 3.02 ± 0.21 | 2.8 ± 0.18 | 3.18 ± 0.084 | 3.4 ± 0.13 |
